In paper PMC7483736, “Catalytic specificity of the Lactobacillus plantarum cystathionine γ-lyase presumed by the crystallographic analysis” (Scientific Reports, 2020):

Key:
L. plantarum CGL [1] = molecular target: T1, L. plantarum CGL (Lactiplantibacillus plantarum, UniProt F9UT53, K194A); experiment: X-ray crystal structure, […] Å; type: binding; conditions: covalent; external aldimine with PLP at active site, inactive mutant
T1 construct: gene cblB; C-terminal His6 tag (kept), pET-21a(+), E. coli BL21(DE3); homotetramer, active site between two subunits; PCR primers (translated) give N-terminus MRTLTMKFETQ and C-terminus FASIQAD before LE-His6

[2] = molecular target: K194A mutant of L. plantarum CGL (cystathionine γ-lyase from Lactobacillus plantarum SN35N) (Lactobacillus plantarum SN35N); experiment: crystal structure; K194A CGL at 9 mg/mL with PLP and 2 mM cystathionine or 2 mM L-serine; sitting-drop vapor diffusion, precipitant 0.4 M KH2PO4 and 0.4 M Na2HPO4; tetramer seen in the crystal
L. plantarum CGL [3] = molecular target: T1, L. plantarum CGL; experiment: X-ray crystal structure, […] Å; type: binding; conditions: covalent; external aldimine with PLP, substrate analogue, phosphate at distal carboxyl site
H2S release as PbS, A390 [4] = substrate: N[C@@H](CS)C(=O)O; experiment: H2S release as PbS, A390; type: biochemical, Lactiplantibacillus plantarum; conditions: L-cysteine beta-lyase, 100 mM HEPES-KOH pH 7.5, 5 mM TCEP, 0.4 mM lead(II) nitrate, 37 °C
From the text: (§1) H2S release as PbS, A390 on L. plantarum CGL

H2S release as PbS, A390 [5] = substrate: N[C@@H](CCS)C(=O)O; experiment: H2S release as PbS, A390; type: biochemical, Lactiplantibacillus plantarum; conditions: L-homocysteine gamma-lyase
From the text: as §1

[6] = substrate: N[C@@H](CSSC[C@H](N)C(=O)O)C(=O)O; experiment: lactate dehydrogenase-coupled pyruvate formation, NADH A340; type: biochemical, Lactiplantibacillus plantarum; conditions: L-cystine beta-lyase, 100 mM HEPES-KOH pH 7.5, 0.2 mM NADH, 37 °C
From the text: lactate dehydrogenase-coupled pyruvate formation, NADH A340 on L. plantarum CGL

DTNB thiol release, A412 = substrate: N[C@@H](CCSC[C@H](N)C(=O)O)C(=O)O; experiment: DTNB thiol release, A412; type: biochemical, Lactiplantibacillus plantarum; conditions: cystathionase, 100 mM HEPES-KOH pH 7.5, 0.5 mM DTNB, 37 °C
From the text: DTNB thiol release, A412 on L. plantarum CGL

[7] = 100 mM HEPES-KOH pH 7.5, 5 mM TCEP, 0.4 mM lead(II) nitrate, 37 °C
[8] = buffer same, fitted with substrate inhibition, called inaccurate by authors

T1 sequence (F9UT53 entry or part of it K194A): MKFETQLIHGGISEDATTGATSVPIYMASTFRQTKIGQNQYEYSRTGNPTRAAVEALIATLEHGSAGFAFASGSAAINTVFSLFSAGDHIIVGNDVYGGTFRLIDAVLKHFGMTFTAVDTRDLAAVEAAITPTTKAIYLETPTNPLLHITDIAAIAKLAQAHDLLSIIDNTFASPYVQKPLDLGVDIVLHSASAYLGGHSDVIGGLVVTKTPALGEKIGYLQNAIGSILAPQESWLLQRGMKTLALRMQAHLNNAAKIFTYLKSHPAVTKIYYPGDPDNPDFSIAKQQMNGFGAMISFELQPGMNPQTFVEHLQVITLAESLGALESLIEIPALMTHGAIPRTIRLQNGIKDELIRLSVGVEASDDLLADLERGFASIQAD

Molecule: N[C@@H](CCSC[C@H](N)C(=O)O)C(=O)O [cystathionine]
- X-ray crystal structure, 3.10 Å (L. plantarum CGL [1]): Cystathionine was found in the crystal structure as a part of the external aldimine

Molecule: K194A mutant of L. plantarum CGL (cystathionine γ-lyase from Lactobacillus plantarum SN35N) (enzyme)
- stoichiometry N [2]: 4

Molecule: N[C@@H](CO)C(=O)O [L-serine]
- X-ray crystal structure, 2.75 Å (L. plantarum CGL [3]): L-serine was also found as part of the external aldimine formed with PLP

B1: L. plantarum CGL (Lactiplantibacillus plantarum WCFS1) (protein)
chain: MKFETQLIHGGISEDATTGATSVPIYMASTFRQTKIGQNQYEYSRTGNPTRAAVEALIATLEHGSAGFAFASGSAAINTVFSLFSAGDHIIVGNDVYGGTFRLIDAVLKHFGMTFTAVDTRDLAAVEAAITPTTKAIYLETPTNPLLHITDIAAIAKLAQAHDLLSIIDNTFASPYVQKPLDLGVDIVLHSASKYLGGHSDVIGGLVVTKTPALGEKIGYLQNAIGSILAPQESWLLQRGMKTLALRMQAHLNNAAKIFTYLKSHPAVTKIYYPGDPDNPDFSIAKQQMNGFGAMISFELQPGMNPQTFVEHLQVITLAESLGALESLIEIPALMTHGAIPRTIRLQNGIKDELIRLSVGVEASDDLLADLERGFASIQAD
notes: C-terminal His6 tag (kept), pET-21a(+), E. coli BL21(DE3); homotetramer, active site between two subunits; PCR primers (translated) give N-terminus … and C-terminus FASIQAD before LE-His6
- Km (H2S release as PbS, A390 [4]): 35000 ± 6000 µM
- kcat (H2S release as PbS, A390 [4]): 0.3 ± 0.03 s⁻¹
- kcat/Km (H2S release as PbS, A390 [4]): 8.6 ± 1.8 M⁻¹ s⁻¹
- Km (H2S release as PbS, A390 [5]; [7]): 6300 ± 700 µM
- kcat (H2S release as PbS, A390 [5]; [7]): 0.081 ± 0.004 s⁻¹
- kcat/Km (H2S release as PbS, A390 [5]; [7]): 13 ± 1 M⁻¹ s⁻¹
- Km [6]: 120 ± 10 µM
- kcat [6]: 0.12 ± 0.01 s⁻¹
- kcat/Km [6]: 1000 ± 100 M⁻¹ s⁻¹
- Km (DTNB thiol release, A412): 450 ± 10 µM
- kcat (DTNB thiol release, A412): 0.49 ± 0.01 s⁻¹
- kcat/Km (DTNB thiol release, A412): 1100 ± 100 M⁻¹ s⁻¹

B2: L. plantarum CGL (Lactiplantibacillus plantarum WCFS1; Y97F) (protein)
chain: MKFETQLIHGGISEDATTGATSVPIYMASTFRQTKIGQNQYEYSRTGNPTRAAVEALIATLEHGSAGFAFASGSAAINTVFSLFSAGDHIIVGNDVFGGTFRLIDAVLKHFGMTFTAVDTRDLAAVEAAITPTTKAIYLETPTNPLLHITDIAAIAKLAQAHDLLSIIDNTFASPYVQKPLDLGVDIVLHSASKYLGGHSDVIGGLVVTKTPALGEKIGYLQNAIGSILAPQESWLLQRGMKTLALRMQAHLNNAAKIFTYLKSHPAVTKIYYPGDPDNPDFSIAKQQMNGFGAMISFELQPGMNPQTFVEHLQVITLAESLGALESLIEIPALMTHGAIPRTIRLQNGIKDELIRLSVGVEASDDLLADLERGFASIQAD
notes: as for B1
- Km (H2S release as PbS, A390 [4]; pH 7.5): 160 ± 30 µM
- kcat (H2S release as PbS, A390 [4]; pH 7.5): 0.015 ± 0.001 s⁻¹
- kcat/Km (H2S release as PbS, A390 [4]; pH 7.5): 96 ± 18 M⁻¹ s⁻¹
- Km (H2S release as PbS, A390 [5]; [8]): 1200 ± 800 µM
- kcat (H2S release as PbS, A390 [5]; [8]): 0.042 ± 0.02 s⁻¹
- kcat/Km (H2S release as PbS, A390 [5]; [8]): 35 ± 27 M⁻¹ s⁻¹
- Km [6]: 56 ± 9 µM
- kcat [6]: 0.1 ± 0.01 s⁻¹
- kcat/Km [6]: 1800 ± 300 M⁻¹ s⁻¹
- Km (DTNB thiol release, A412): 770 ± 210 µM
- kcat (DTNB thiol release, A412): 0.0056 ± 0.0007 s⁻¹
- kcat/Km (DTNB thiol release, A412): 7.2 ± 2.2 M⁻¹ s⁻¹
